Data set [1] is described as follows: PK of regular human insulin (NOVOLIN R) after SC or intra-jejunal jet delivery, blood insulin levels. The class given is in vivo, swine. As to conditions: for Cmax / Tmax: IJ administration by jet delivery device, blood insulin. The protocol:
A total of 18 Yorkshire female swine in good health and weighing 60-70 kg each were included in this study. Swine were divided into two groups with 9 animals per group. […] A sham surgical laparotomy was performed. […] The jet delivery device was configured with the single nozzle in an axial orientation.
Swine were divided into two groups with 9 animals per group. […] In all 18 animals, a laparotomy procedure was performed to expose the abdominal cavity. Animals remained under anesthesia during the entire procedure for the PK/PD study.
For the laparotomy in group 02, a small segment of the jejunal mucosa and serosa was exposed by midline laparotomy and the jet delivery device was inserted through antimesenteric incision.
(§1) Blood samples were kept on wet ice until centrifugation and separation of plasma. […] Glucose was monitored every five (5) minutes during the study by portable glucose analyzer (StatStrip (SS) hospital glucose monitoring system (Nova Biomedical, Waltham, MA)). At each time point, approximate 0.1 mL of blood was drawn and immediately placed on a glucose monitoring test strip, and the whole blood glucose concentration was measured by the SS in triplicate.
The animals were anesthetized for the entire ECP.

In the next data set the test system is blood glucose. Put plainly: Euglycemic clamp procedure: blood glucose and dextrose infusion rate after NOVOLIN R. Format: in vivo, swine. The note with it: for mean blood glucose level: euglycemic clamp. The protocol:
as §1
A euglycemic clamp procedure (ECP) was employed to compare pharmacokinetics and pharmacodynamics of regular human Insulin (NOVOLIN® R) delivered subcutaneously (SC) in the neck versus intra-jejunally (IJ) by the jet delivery device in the small intestine. ECP was used to quantify the amount of glucose required to maintain normoglycemia after exogenous bolus of insulin. […] The animals were anesthetized for the entire ECP.

The conditions of data set [2]: pig, in vivo.
The mark [3] stands for this setting: SC administration, swine, group average.
The mark [4] stands for this setting: SC administration, swine, individual animals.

“And” between values parts separate entries of the source, which are not always exact repeats. Equal entries are not always repeated. Where two headings read alike, the source gives them in different places.

As for “NOVOLIN® R: regular human insulin (NOVOLIN® R)”, in data set [1] (Average of 8 animals), the Cmax came to 77.40 uIU/mL and the Tmax stood at 55.63 min. In data set [1] (individual animal), the Cmax is 40.93 uIU/mL and 96.77 uIU/mL and 5.03 uIU/mL and 7.96 uIU/mL and 48.77 uIU/mL and 85.38 uIU/mL and 207.96 uIU/mL and 126.39 uIU/mL; the Tmax is 20 min and 50 min and 90 min (2×) and 40 min (3×). The “blood insulin level in animal 18P18” value in data set [1] (SC administration group, compared with rest of group) is “significantly higher than the rest of the animals in the group”. Moreover, in data set [1] (setting [3]), the “Cmax of blood insulin, Average” value is 202.94 uIU/mL and the “Tmax of blood insulin, Average” value was found to be 1.452 h. In addition, in data set [1] (setting [4]), the “Cmax of blood insulin” value is 451.00 uIU/mL and 60.74 uIU/mL and 354.00 uIU/mL and 356.60 uIU/mL and 65.71 uIU/mL and 59.18 uIU/mL and 73.34 uIU/mL; the “Tmax of blood insulin” value was 50 min (2×) and 180 min and 105 min and 30 min and 120 min. Besides, the “maximum plasma concentration Cmax, SC group compared with IJ group” value in data set [1] (SC versus IJ administration) is on record as “higher than that of the IJ administration group”. Also, the “time to maximum plasma concentration (Tmax)” value in data set [1] (jejunum (IJ) administration via jet delivery device, swine, group mean) was found to be 0.9272 h. Further, the “mean blood glucose level” value with blood glucose (IJ administration group) is 89.6 mg/dL. In the data set with blood glucose (SC administration group), the “mean blood glucose level” value is 83.5 mg/dL. For the same substance, the “mean dextrose infusion rate, IJ versus SC group” value in the data set on blood glucose (from 75 minutes to 420 minutes post-administration) is “higher in the SC administration group”.
Turning to “dulaglutide: long-acting GLP-1 receptor agonist, GLP-1 analogue linked to modified human IgG4 Fc, about 63 kDa”, in data set [2], the “Bioavailability relative to IV” value stood at 26.51%, the “Bioavailability relative to SC” value is reported as 49.11% and the “plasma level in one animal in Group 1 (no. 8487; ID)” value is listed as “below the limit of detection”. For the same substance, in data set [2] (1.2 mg), the “(AUC)T0-T240 h ± SEM” value was determined as 4355.86 ng·h/mL, the “AUCID (mean ± SEM)” value came to 3890.00 ± 94.73 ng·h/mL, the Cmax came to 70.65 ng and the Tmax turned out to be 8 h. The “Bioavailability relative to IV” value in data set [2] (iv) was determined as 100%. In data set [2] (iv, 1.2 mg), the “(AUC)T0-T240 h ± SEM” value was 16429.33 ng·h/mL, the Cmax is recorded as 632.93 ng and the Tmax was 1 h. The “Bioavailability relative to SC” value in data set [2] (sc) is 100%. Also, in data set [2] (sc, 1.2 mg), the “(AUC)T0-T240 h ± SEM” value stood at 8869 ng·h/mL, the Cmax stood at 141.3 ng and the Tmax was determined as 6 h.

For the origin of these results see patent publication US20240252795A1, “INGESTIBLE DEVICE FOR DELIVERY OF THERAPEUTIC AGENT TO THE GASTROINTESTINAL TRACT” (BIORA THERAPEUTICS, INC., priority 2018, published 2024).
